Positions count from the first letter of the chain named. Names may count otherwise. Read-outs that look alike come from different tables or passages of the source.
Assays:
Test in all cases: fluorescence polarisation
WT SufS [1] = target: T1, WT SufS (E. coli, UniProt P77444 1-406, PLP cofactor attached to K226 as an internal aldimine)
T1 sequence: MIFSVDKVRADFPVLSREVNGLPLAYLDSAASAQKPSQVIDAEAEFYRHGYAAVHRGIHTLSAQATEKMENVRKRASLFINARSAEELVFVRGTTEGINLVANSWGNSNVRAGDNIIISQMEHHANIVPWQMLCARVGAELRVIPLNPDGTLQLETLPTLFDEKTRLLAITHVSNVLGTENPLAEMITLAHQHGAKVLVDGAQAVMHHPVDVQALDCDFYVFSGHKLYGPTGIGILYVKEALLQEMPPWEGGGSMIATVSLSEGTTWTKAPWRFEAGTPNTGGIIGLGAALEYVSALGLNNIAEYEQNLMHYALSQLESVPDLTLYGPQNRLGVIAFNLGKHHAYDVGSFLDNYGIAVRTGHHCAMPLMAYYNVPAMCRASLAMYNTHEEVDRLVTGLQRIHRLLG

R56A SufS [2] = target: T2, R56A SufS (E. coli, UniProt P77444 1-406, R56A, PLP cofactor (occupancy greater than 90%))
T2 sequence: T1 sequence with R56A

R56K SufS [3] = target: T3, R56K SufS (E. coli, UniProt P77444 1-406, R56K, PLP cofactor (occupancy greater than 90%))
T3 sequence: T1 sequence with R56K

R359A SufS [4] = target: T4, R359A SufS (E. coli, UniProt P77444 1-406, R359A, PLP cofactor (occupancy greater than 90%))
T4 sequence: T1 sequence with R359A

R359K SufS [5] = target: T5, R359K SufS (E. coli, UniProt P77444 1-406, R359K, PLP cofactor (occupancy greater than 90%))
T5 sequence: T1 sequence with R359K

WT SufS [6] = target: T1, WT SufS; remark: listed apart in the source
R56A SufS [7] = target: T2, R56A SufS; remark: listed apart in the source
R56K SufS [8] = target: T3, R56K SufS; remark: listed apart in the source
R359A SufS [9] = target: T4, R359A SufS; remark: listed apart in the source
R359K SufS [10] = target: T5, R359K SufS; remark: listed apart in the source

Kd (WT SufS [1]): 2.5 ± 0.3 µM
Kd (R56A SufS [2]): 5.8 ± 0.9 µM
Kd (R56K SufS [3]): 8.5 ± 1.1 µM
Kd (R359A SufS [4]): 0.9 ± 0.2 µM
Kd (R359K SufS [5]): 4.6 ± 0.5 µM
Kd (WT SufS [6]): 0.2 ± 0.1 µM
Kd (R56A SufS [7]): 4 ± 0.4 µM
Kd (R56K SufS [8]): 2.8 ± 0.3 µM
Kd (R359A SufS [9]): 0.3 ± 0.1 µM
Kd (R359K SufS [10]): 2.8 ± 0.3 µM
B1: BODIPY-FL labeled C51A/E107C SufE (natural protein, E. coli, UniProt P76194 1-138, looked up)
chain: MALLPDKEKLLRNFLRCANWEEKYLYIIELGQRLPELRDEDRSPQNSIQGAQSQVWIVMRQNAQGIIELQGDSDAAIVKGLIAVVFILYDQMTPQDIVNFDVRPWFCKMALTQHLTPSRSQGLEAMIRAIRAKAAALS
modifications: BODIPY FL maleimide label (labelling efficiency 60-80%)

From paper PMC11507941 (bioRxiv, 2024)
